{"source": "patent US20240016892A1", "about": "(SHATTUCK LABS, published 2024)", "binders": {"B1": {"name": "human TIGIT-Fc-LIGHT chimeric protein (Fc fusion)", "chain": "MMTGTIETTGNISAEKGGSIILQCHLSSTTAQVTQVNWEQQDQLLAICNADLGWHISPSFKDRVAPGPGLGLTLQSLTVNDTGEYFCIYHTYPDGTYTGRIFLEVLESSVAEHGARFQIPSKYGPPCPPCPAPEFLGGPSVFLFPPKPKDQLMISRTPEVTCVVVDVSQEDPEVQFNWYVDGVEVHNAKTKPREEQFNSTYRVVSVLTVLHQDWLSGKEYKCKVSSKGLPSSIEKTISNATGQPREPQVYTLPPSQEEMTKNQVSLTCLVKGFYPSDIAVEWESNGQPENNYKTTPPVLDSDGSFFLYSRLTVDKSRWQEGNVFSCSVLHEALHNHYTQKSLSLSLGKIEGRMDLQLHWRLGEMVTRLPDGPAGSWEQLIQERRSHEVNPAAHLTGANSSLTGSGGPLLWETQLGLAFLRGLSYHDGALVVTKAGYYYIYSKVQLGGVGCPLGLASTITHGLYKRTPRYPEELELLVSQQSPCGRATSSSRVWWDSSFLGGVVHLEAGEKVVVRVLDERLVRLRDGTRSYFGAFMV", "notes": "Said to exist as a hexamer (dimer of trimers); Glycosylated; also called hTIGIT-Fc-LIGHT; TIGIT-Fc(IgG4)-LIGHT"}}, "key": {"[1]": {"biological_target": "T1, recombinant human HVEM-Fc (human, UniProt Q92956 39-202, limits assumed)", "T1 construct": "also called human recombinant HVEM (MSD plates); not shown: Fc of the bought fusion (Acro Biosystems); not described", "T1 sequence (looked up)": "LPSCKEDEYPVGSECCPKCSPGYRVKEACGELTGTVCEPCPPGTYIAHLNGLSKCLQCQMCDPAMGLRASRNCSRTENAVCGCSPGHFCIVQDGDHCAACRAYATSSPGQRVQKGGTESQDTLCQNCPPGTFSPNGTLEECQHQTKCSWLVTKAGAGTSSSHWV", "assay": "MSD sandwich 'Dual - Potency #2': capture HVEM-Fc, TIGIT-Fc-LIGHT titrated, detection PVR-Biotin", "method": "(§1) For the TIGIT-Fc-LIGHT chimeric protein; MSD Multi-Array plates (MSD) were pre-coated overnight with recombinant human LTβR-Fc or HVEM-Fc (Acro Biosystems) at 4° C. The plates were blocked with Diluent 100 (MSD) for at least one hour at room temperature on a shaker. After washing, analysis samples were added and then serially diluted 3-fold and loaded in duplicate wells to generate 8-10 test concentrations. The bound the TIGIT-Fc-LIGHT chimeric protein was detected with recombinant biotinylated human PVR (Acro Biosystems). Streptavidin conjugated to ruthenium (MSD), was added to bind the biotin labeled detector. MSD Gold Reading buffer (MSD) was added to the plate, and upon application of an electrical charge, an electrochemiluminescent signal was produced and detected with the MSD MESO QuickPlex SQ 120MM, Model 1300, to generate relative light units (RLU). Analogous assays were performed using mTIGIT-Fc-LIGHT and murine recombinant PVR, HVEM, and […] (Acro Biosystems).\n(§2) The binding of the TIGIT-Fc-LIGHT chimeric protein to its receptors was characterized by Meso Scale Discovery (MSD) ELISA assays. […] Binding of the chimeric protein to LTβR-Fc was detected using an PVR-Biotin and using an electrochemiluminescence (ECL) readout. […] Binding of the chimeric protein to HVEM-Fc was detected using an PVR-Biotin and using an electrochemiluminescence (ECL) readout. […]"}, "[2]": {"biological_target": "T2, cell surface human HVEM (CHO-K1/hHVEM cells; Jurkat effector cells; human PBMC) (human, UniProt Q92956 39-283)", "T2 construct": "whole, on cells; also called cell surface HVEM", "T2 sequence (looked up)": "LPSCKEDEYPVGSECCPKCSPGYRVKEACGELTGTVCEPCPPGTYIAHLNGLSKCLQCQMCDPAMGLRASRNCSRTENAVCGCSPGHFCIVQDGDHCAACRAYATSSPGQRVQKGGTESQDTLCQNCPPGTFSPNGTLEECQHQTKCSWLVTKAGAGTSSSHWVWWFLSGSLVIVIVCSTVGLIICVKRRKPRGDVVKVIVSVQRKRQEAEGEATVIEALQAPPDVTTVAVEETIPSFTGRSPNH", "assay": "flow cytometry, CHO-K1 cells stably expressing human HVEM; cell surface HVEM"}, "recombinant human PVR": {"biological_target": "T3, recombinant human PVR (human, UniProt P15151 21-343)", "T3 construct": "The tagged PVR of the BLI assay and the biotinylated PVR used as detector in MSD are treated as one molecule; also called rhPVR; CD155", "T3 sequence (looked up)": "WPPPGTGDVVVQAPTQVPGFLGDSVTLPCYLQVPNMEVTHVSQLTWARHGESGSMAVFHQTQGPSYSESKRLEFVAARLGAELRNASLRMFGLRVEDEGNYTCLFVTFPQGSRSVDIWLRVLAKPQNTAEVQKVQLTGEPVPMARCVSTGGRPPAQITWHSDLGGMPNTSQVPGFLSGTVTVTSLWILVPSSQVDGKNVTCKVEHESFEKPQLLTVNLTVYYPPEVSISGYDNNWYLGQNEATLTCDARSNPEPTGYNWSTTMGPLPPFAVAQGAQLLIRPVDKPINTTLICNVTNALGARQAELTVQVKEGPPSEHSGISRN", "assay": "MSD sandwich 'Dual - Potency #2': capture HVEM-Fc, TIGIT-Fc-LIGHT titrated, detection PVR-Biotin (same curve as the capture row)", "method": "as §1, §2"}, "recombinant human HVEM": {"biological_target": "T4, recombinant human HVEM (human, UniProt Q92956 39-202)", "T4 construct": "Construct limits and tag not specified; also called rhHVEM; TNFRSF14", "T4 sequence (looked up)": "T1 sequence (looked up)", "assay": "BLI (Octet-Red96), tagged rhHVEM immobilised on biosensor", "method": "(§3) Bio-Layer interferometry-based affinity testing was used to determine the on-rates (Ka), off-rates (Kd) and binding affinities (KD) of the TIGIT-Fc-LIGHT chimeric protein to intended binding targets, using histidine- or biotin-tagged versions of the human recombinant proteins (PVR, HVEM, LTβR, PVRL2, PVRL3, and Nectin-4; purchased from Acro Biosystems or Sino Biological). Commercially available or internally produced single-sided fusion protein controls (TIGIT-Fc and Fc-LIGHT) were also tested in parallel. Targets were immobilized at a concentration of 3 μg/mL in Kinetics buffer (PBS/0.1% Tween-20/1% BSA; pH7.0) to anti-pentaHis or streptavidin coated biosensors. Direct binding of fusion proteins to recombinant target proteins was performed on an Octet-Red96 BLI instrument, using association and dissociation times of 90 and 120 seconds, respectively.\n(§4) Protein-protein interactions (PPI) between the fusion proteins and their cognate binding partners were characterized using both recombinant protein and cell-based methods. First, bio-layer interferometry-based affinity testing was used to assess the kinetics of receptor/ligand binding."}, "[3]": {"biological_target": "T5, recombinant human LTβR-Fc (human, UniProt P36941 31-227, limits assumed)", "T5 construct": "not shown: Fc of the bought fusion (Acro Biosystems); not described", "T5 sequence (P36941 31-227 limits assumed)": "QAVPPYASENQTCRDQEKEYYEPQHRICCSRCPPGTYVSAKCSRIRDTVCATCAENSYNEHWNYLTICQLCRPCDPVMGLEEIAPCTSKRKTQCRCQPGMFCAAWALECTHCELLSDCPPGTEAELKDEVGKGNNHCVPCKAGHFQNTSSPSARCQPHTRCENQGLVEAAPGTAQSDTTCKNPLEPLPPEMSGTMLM", "assay": "MSD sandwich 'Dual - Potency #1': capture LTβR-Fc, TIGIT-Fc-LIGHT titrated, detection PVR-Biotin", "method": "as §1, §2"}, "recombinant human LTβR": {"biological_target": "T6, recombinant human LTβR (human, UniProt P36941 31-227, limits assumed)", "T6 construct": "Bought from Acro Biosystems or Sino Biological; construct limits and tag not specified; also called rhLTβR; TNFRSF3", "T6 sequence (P36941 31-227 limits assumed)": "as above", "assay": "BLI (Octet), affinity for recombinant human LTβR compared with Fc-LIGHT", "method": "as §3, §4"}}, "data": [{"binder": "B1", "values": [{"measurement": "EC50", "setting": "[1]", "value": 86, "unit": "nM"}, {"measurement": "EC50", "setting": "[2]", "value": 65.8, "unit": "nM"}, {"measurement": "EC50", "setting": "recombinant human PVR", "value": 86, "unit": "nM"}, {"measurement": "Kd", "setting": "recombinant human HVEM", "value": 6.49, "unit": "nM"}, {"measurement": "koff", "setting": "recombinant human HVEM", "value": 0.000173, "unit": "s⁻¹"}, {"measurement": "kon", "setting": "recombinant human HVEM", "value": 26100, "unit": "M⁻¹ s⁻¹"}, {"measurement": "EC50", "setting": "[3]", "value": 28.3, "unit": "nM"}, {"measurement": "fold affinity relative to Fc-LIGHT control", "setting": "recombinant human LTβR", "value": "~8", "unit": "fold"}]}]}
